This is an account of results in publication PMC9574550, “Protein engineering approach to enhance activity assays of mono-ADP-ribosyltransferases through proximity” (Protein Engineering, Design and Selection, 2022).

In one test the target is T1, PARP16 (Homo sapiens, UniProt Q8N5Y8).
T1 construct: catalytic fragment, MBP-PARP16-Dockerin (PARP16-Dock) on C8 scaffold
T1 sequence (Q8N5Y8 94-279 limits assumed): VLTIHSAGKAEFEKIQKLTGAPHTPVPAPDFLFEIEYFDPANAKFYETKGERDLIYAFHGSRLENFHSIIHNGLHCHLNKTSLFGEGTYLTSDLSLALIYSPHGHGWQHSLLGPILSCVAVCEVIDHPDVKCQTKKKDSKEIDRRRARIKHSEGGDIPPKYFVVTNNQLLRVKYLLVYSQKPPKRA
Put plainly: homogeneous NAD+ conversion assay, dose-response. It counts as biochemical.

For test [1], the target named is C8 scaffold (eight tandem repeats of H. thermocellum CipA cohesin 1) (Hungateiclostridium thermocellum) (UniProt Q06851). Put plainly: SEC-MALS; 35 μM enzyme mixed with C8 scaffold in SEC buffer with 2 mM CaCl2, S200 Increase 10/300; ratio that resulted in no visible unbound PARP10-Dock (saturating conditions). On the technique in general: SEC sorts molecules by how far they enter the pores of the column.

Test [2] has the same target. Put plainly: SEC-MALS; 35 μM enzyme mixed with C8 scaffold in SEC buffer with 2 mM CaCl2, S200 Increase 10/300; apparent excess of PARP10-Dock (limited C8 scaffold).

`CN(C)CC(=O)Nc1ccc2[nH]c(=O)c3ccccc3c2c1` [PJ34] displayed an IC50 on PARP16 of 38 µM.

For “PARP10-Dock (MBP-PARP10 catalytic fragment-Cel48S dockerin) (from UniProt A3DH67 673-739) (enzyme)”, the values for the stoichiometry N (PARP10-Dock per C8 scaffold) in test [1] and in test [2] were 7 and less than 8, respectively.

Usually IC50 stands for the concentration needed to halve the response being measured. Read a low IC50 as greater potency.
